Common to all, as to format: biochemical
A short description of series [1]: Reaction distributions (product ratios) of beta-galactosidase preparations. To be noted: 12.8 g/L MG-V (10 mM), pH 6.0, 50° C., 96 hrs. On the procedure: (§1) Mogroside compounds HPLC separation and quantification was conducted using a Synergi Hydro-RP column (250 mm×4.6 mm or 150 mm×4.6 mm) with an initial flow rate of 1 mL min−1 and a water: acetonitrile gradient as per below, similar to that described by Zhou et al. (WO 2014/150127). Compounds were detected at 210 nm using diode array detector (Agilent Technologies, USA), and calibration curves established using standard curves from 0.1 to 10 mM.
Reaction distributions were evaluated for G5160 beta-galactosidase (Sigma), Maxilact A4 beta-galactosidase (DSM) and Pp-Aspergillus oryzae beta-galactosidase.
Using 12.8 g/L MG-V (10 mM) at pH 6.0, 50° C. for 96 hrs reaction time

Series [2] is described as follows: Standard mogroside biocatalytic assay, mogroside V substrate. The procedure: (§2) Standard mogroside biocatalytic assays were performed at 37° C. in 500 μL, volume 50 mM sodium citrate buffer pH 5.6, 10 mM magnesium chloride, 10 mM substrate (typically mogroside V) and 50 μg mL−1 enzyme, and incubated for 24-96 hours. Mogroside glucosidation activity was detected by direct HPLC detection and quantification of mogroside V substrate and mogroside products from filtered reaction supernatant, and quantified by comparison with standard curves based on peak.
as §1
(§3) Cells expressing enzyme variants grown in buffered minimal medium were induced for 72 hr with 1% methanol (refreshed every 24 hr), the culture supernatant harvested and assayed for standard ONPG activity over 30 minutes and mogroside V activity at pH 5.6, 37° C. for 72 hrs. The resultant activity data (Table 2) identified E200 and D258 as the likely catalytic pair for acid/base and nucleophilic attack of mogroside V by the A. oryzae β-glucosidase enzyme.

Series [3] in a line: Mogroside biocatalytic assay, equimolar MogV:SiaI substrate. To be noted: comparison of wildtype and variant. On the procedure: as §2, §1
A short description of series [4]: β-galactosidase ONPG activity assay. The settings on record: oNPG substrate, over 30 minutes. On the procedure: Standard β-galactosidase assays were performed at room temperature using o-nitrophenyl-β-D-galactopyranoside (ONPG, Sigma) as a substrate in […] with detection of o-nitrophenol release at 420 nm (UV-Spectra Max Spectrophotometer, Molecular Devices, USA). A typical reaction contained 50 mM sodium citrate buffer pH 5.6, 10 mM magnesium chloride and 100 mM potassium chloride with 2 mM ONPG and the desired amount of enzyme (usually […]). Partially purified AoBG (Sigma G5160, USA) was used as a positive control at a final concentration of 1 U mL−1. Vmax was calculated using the SpectraMax Plus software (Molecular Devices, USA) and when required kinetics were determined by varying the concentration of substrate and kinetic determinants calculated using Hyper™ (J. S. Easterby, Liverpool University).
as §3

[5] abbreviates: Mogroside hydrolysis, 72 h, 37 C., pH 5.6.
Setting [6] is: product ratio, 72 h, 37 C., pH 5.6.

Entries after “also recorded” stand apart in the source; their conditions may differ.

B1: PpAoBG: same acid lactase/β-Galactosidase enzyme as the Maxilact A4, expressed in a Pichia pistoris system (protein, UniProt Q2UCU3 19-1005, looked up)
Beta-galactosidase A: ASIKHRLNGFTILEHPDPAKRDLLQDIVTWDDKSLFINGERIMLFSGEVHPFRLPVPSLWLDIFHKIRALGFNCVSFYIDWALLEGKPGDYRAEGIFALEPFFDAAKEAGIYLIARPGSYINAEVSGGGFPGWLQRVNGTLRSSDEPFLKATDNYIANAAAAVAKAQITNGGPVILYQPENEYSGGCCGVKYPDADYMQYVMDQARKADIVVPFISNDASPSGHNAPGSGTGAVDIYGHDSYPLGFDCANPSVWPEGKLPDNFRTLHLEQSPSTPYSLLEFQAGAFDPWGGPGFEKCYALVNHEFSRVFYRNDLSFGVSTFNLYMTFGGTNWGNLGHPGGYTSYDYGSPITETRNVTREKYSDIKLLANFVKASPSYLTATPRNLTTGVYTDTSDLAVTPLIGDSPGSFFVVRHTDYSSQESTSYKLKLPTSAGNLTIPQLEGTLSLNGRDSKIHVVDYNVSGTNIIYSTAEVFTWKKFDGNKVLVLYGGPKEHHELAIASKSNVTIIEGSDSGIVSTRKGSSVIIGWDVSSTRRIVQVGDLRVFLLDRNSAYNYWVPELPTEGTSPGFSTSKTTASSIIVKAGYLLRGAHLDGADLHLTADFNATTPIEVIGAPTGAKNLFVNGEKASHTVDKNGIWSSEVKYAAPEIKLPGLKDLDWKYLDTLPEIKSSYDDSAWVSADLPKTKNTHRPLDTPTSLYSSDYGFHTGYLIYRGHFVANGKESEFFIRTQGGSAFGSSVWLNETYLGSWTGADYAMDGNSTYKLSQLESGKNYVITVVIDNLGLDENWTVGEETMKNPRGILSYKLSGQDASAITWKLTGNLGGEDYQDKVRGPLNEGGLYAERQGFHQPQPPSESWESGSPLEGLSKPGIGFYTAQFDLDLPKGWDVPLYFNFGNNTQAARAQLYVNGYQYGKFTGNVGPQTSFPVPEGILNYRGTNYVALSLWALESDGAKLGSFELSYTTPVLTGYGNVESPEQPKYEQRKGAY
modifications: expressed in Pichia pastoris
notes: same acid lactase/β-Galactosidase enzyme as the Maxilact A4, expressed in a Pichia pistoris system
As for B1, in series [1], the “Mog III” value turned out to be 12%, the “Mog IV” value was determined as 21%, the “Mog V” value is on record as 24% and the “Siam I” value turned out to be 43%. Further, the “Siamenoside I produced” value in series [2] (mogV assay, HPLC analysis, 37° C., after 48 hrs) is ~32%.

B2: ML: acid lactase/β-Galactosidase enzyme preparation from Aspergillus oryzae expressed in Aspergillus niger (protein, UniProt Q2UCU3 19-1005, looked up)
Beta-galactosidase A: ASIKHRLNGFTILEHPDPAKRDLLQDIVTWDDKSLFINGERIMLFSGEVHPFRLPVPSLWLDIFHKIRALGFNCVSFYIDWALLEGKPGDYRAEGIFALEPFFDAAKEAGIYLIARPGSYINAEVSGGGFPGWLQRVNGTLRSSDEPFLKATDNYIANAAAAVAKAQITNGGPVILYQPENEYSGGCCGVKYPDADYMQYVMDQARKADIVVPFISNDASPSGHNAPGSGTGAVDIYGHDSYPLGFDCANPSVWPEGKLPDNFRTLHLEQSPSTPYSLLEFQAGAFDPWGGPGFEKCYALVNHEFSRVFYRNDLSFGVSTFNLYMTFGGTNWGNLGHPGGYTSYDYGSPITETRNVTREKYSDIKLLANFVKASPSYLTATPRNLTTGVYTDTSDLAVTPLIGDSPGSFFVVRHTDYSSQESTSYKLKLPTSAGNLTIPQLEGTLSLNGRDSKIHVVDYNVSGTNIIYSTAEVFTWKKFDGNKVLVLYGGPKEHHELAIASKSNVTIIEGSDSGIVSTRKGSSVIIGWDVSSTRRIVQVGDLRVFLLDRNSAYNYWVPELPTEGTSPGFSTSKTTASSIIVKAGYLLRGAHLDGADLHLTADFNATTPIEVIGAPTGAKNLFVNGEKASHTVDKNGIWSSEVKYAAPEIKLPGLKDLDWKYLDTLPEIKSSYDDSAWVSADLPKTKNTHRPLDTPTSLYSSDYGFHTGYLIYRGHFVANGKESEFFIRTQGGSAFGSSVWLNETYLGSWTGADYAMDGNSTYKLSQLESGKNYVITVVIDNLGLDENWTVGEETMKNPRGILSYKLSGQDASAITWKLTGNLGGEDYQDKVRGPLNEGGLYAERQGFHQPQPPSESWESGSPLEGLSKPGIGFYTAQFDLDLPKGWDVPLYFNFGNNTQAARAQLYVNGYQYGKFTGNVGPQTSFPVPEGILNYRGTNYVALSLWALESDGAKLGSFELSYTTPVLTGYGNVESPEQPKYEQRKGAY
modifications: enzyme preparation expressed in Aspergillus niger
Consider B2, for which, in series [1], the “Mog III” value was determined as 17%, the “Mog IV” value came out at 12%, the “Mog V” value was determined as 22% and the “Siam I” value is 49%.

B3: E804A: A. oryzae β-galactosidase variant, E804A (protein, UniProt Q2UCU3 19-1005, looked up, variant E804A)
Beta-galactosidase A: ASIKHRLNGFTILEHPDPAKRDLLQDIVTWDDKSLFINGERIMLFSGEVHPFRLPVPSLWLDIFHKIRALGFNCVSFYIDWALLEGKPGDYRAEGIFALEPFFDAAKEAGIYLIARPGSYINAEVSGGGFPGWLQRVNGTLRSSDEPFLKATDNYIANAAAAVAKAQITNGGPVILYQPENEYSGGCCGVKYPDADYMQYVMDQARKADIVVPFISNDASPSGHNAPGSGTGAVDIYGHDSYPLGFDCANPSVWPEGKLPDNFRTLHLEQSPSTPYSLLEFQAGAFDPWGGPGFEKCYALVNHEFSRVFYRNDLSFGVSTFNLYMTFGGTNWGNLGHPGGYTSYDYGSPITETRNVTREKYSDIKLLANFVKASPSYLTATPRNLTTGVYTDTSDLAVTPLIGDSPGSFFVVRHTDYSSQESTSYKLKLPTSAGNLTIPQLEGTLSLNGRDSKIHVVDYNVSGTNIIYSTAEVFTWKKFDGNKVLVLYGGPKEHHELAIASKSNVTIIEGSDSGIVSTRKGSSVIIGWDVSSTRRIVQVGDLRVFLLDRNSAYNYWVPELPTEGTSPGFSTSKTTASSIIVKAGYLLRGAHLDGADLHLTADFNATTPIEVIGAPTGAKNLFVNGEKASHTVDKNGIWSSEVKYAAPEIKLPGLKDLDWKYLDTLPEIKSSYDDSAWVSADLPKTKNTHRPLDTPTSLYSSDYGFHTGYLIYRGHFVANGKESEFFIRTQGGSAFGSSVWLNETYLGSWTGADYAMDGNSTYKLSQLESGKNYVITVVIDNLGLDANWTVGEETMKNPRGILSYKLSGQDASAITWKLTGNLGGEDYQDKVRGPLNEGGLYAERQGFHQPQPPSESWESGSPLEGLSKPGIGFYTAQFDLDLPKGWDVPLYFNFGNNTQAARAQLYVNGYQYGKFTGNVGPQTSFPVPEGILNYRGTNYVALSLWALESDGAKLGSFELSYTTPVLTGYGNVESPEQPKYEQRKGAY
As to B3, the “effectiveness of Siamenoside I as a substrate in the presence of mogroside V (in words)” value in series [3] is given as “reducing the effectiveness of Siamenoside I as a substrate”. For the same molecule, in series [4], the oNPG is on record as 34.7 ± 0.4 mAu/min/mg. Further, in series [2], the “Siamenoside I production/yield from mogroside V (in words)” value was “increased ratio of Siamenoside I production; also recorded: increased Siamenoside I yield”. Also, the “Initial Rate” value in series [2] (Mogroside hydrolysis, 37 C., pH 5.6) amounted to 3.06 µmol/min/mg. In addition, in series [2] (setting [5]), the “Reaction Progress” value was 78% and the “Sia 1” value is given as 62%. For the same molecule, in series [2] (setting [6]), the “Sia:MogIII” value was 18.6 and the “Sia:MogIV” value came to 3.3.

These data come from patent US12247238B2, “Mogroside biocatalysis methods and products” (The Coca-Cola Company, priority 2019, dated 2025).
